Assay results as given in publication PMC1636413 (Nucleic Acids Research, 2006).
Values joined by “and” are separate entries in the source; they are usually repeats but may differ in a detail not shown here. Equal values may be shown once.

Experiments:
AUC = molecular target: the molecule itself; assay: AUC
SEC [1] = molecular target: the molecule itself; assay: SEC
SEC [2] = molecular target: the molecule itself; assay: SEC; remark: listed apart in the source

| Protein | stoichiometry N (AUC) | stoichiometry N (SEC [1]) | stoichiometry N (SEC [2]) |
| --- | --- | --- | --- |
| MutS-CTD (His6-tagged C-terminal domain of E.coli MutS, residues 801-853) (domain or fragment, UniProt P23909 801-853, looked up) PNAAATQVDGTQMSLLSVPEETSPAVEALENLDPDSLTPRQALEWIYRLKSLV | 4 | 2 | – |
| MutS-CTD^D835R (domain or fragment, E.coli, UniProt P23909 801-853, looked up) PNAAATQVDGTQMSLLSVPEETSPAVEALENLDPRSLTPRQALEWIYRLKSLV | 2 | – | – |
| MutS-CTD^ΔHis6 (MutS-CTD with the N-terminal His6-tag removed by DAPase) (domain or fragment, E.coli, UniProt P23909 801-853, looked up) PNAAATQVDGTQMSLLSVPEETSPAVEALENLDPDSLTPRQALEWIYRLKSLV | 4 | – | – |
| MutS800^CF (cysteine-free truncated E.coli MutS, residues 1-800, N-terminal His6-tagged) (domain or fragment, UniProt P23909 1-800, looked up) MSAIENFDAHTPMMQQYLRLKAQHPEILLFYRMGDFYELFYDDAKRASQLLDISLTKRGASAGEPIPMAGIPYHAVENYLAKLVNQGESVAIAEQIGDPATSKGPVERKVVRIVTPGTISDEALLQERQDNLLAAIWQDSKGFGYATLDISSGRFRLSEPADRETMAAELQRTNPAELLYAEDFAEMSLIEGRRGLRRRPLWEFEIDTARQQLNLQFGTRDLVGFGVENAPRGLSAAGALLQYAKDTQRTTLPHIRSITMEREQDSIIMDAATRRNLEITQNLAGGAENTLASVLDSTVTPMGSRMLKRWLHMPVRDTRVLLERQQTIGALQDFTAGLQPVLRQVGDLERILARLALRTARPRDLARMRHAFQQLPELRAQLETVDSAPVQALREKMGEFAELRDLLERAIIDTPPVLVRDGGVIASGYNEELDEWRALADGATDYLERLEVRERERTGLDTLKVGFNAVHGYYIQISRGQSHLAPINYMRRQTLKNAERYIIPELKEYEDKVLTSKGKALALEKQLYEELFDLLLPHLEALQQSASALAELDVLVNLAERAYTLNYTSPTFIDKPGIRITEGRHPVVEQVLNEPFIANPLNLSPQRRMLIITGPNMGGKSTYMRQTALIALMAYIGSYVPAQKVEIGPIDRIFTRVGAADDLASGRSTFMVEMTETANILHNATEYSLVLMDEIGRGTSTYDGLSLAWAVAENLANKIKALTLFATHYFELTQLPEKMEGVANVHLDALEHGDTIAFMHSVQDGAASKSYGLAVAALAGVPKEVIKRARQKLRELESIS | – | – | 2 |
| MutS^CF (cysteine-free full-length E.coli MutS, N-terminal His6-tagged) (natural protein, UniProt P23909 1-853, looked up) MSAIENFDAHTPMMQQYLRLKAQHPEILLFYRMGDFYELFYDDAKRASQLLDISLTKRGASAGEPIPMAGIPYHAVENYLAKLVNQGESVAIAEQIGDPATSKGPVERKVVRIVTPGTISDEALLQERQDNLLAAIWQDSKGFGYATLDISSGRFRLSEPADRETMAAELQRTNPAELLYAEDFAEMSLIEGRRGLRRRPLWEFEIDTARQQLNLQFGTRDLVGFGVENAPRGLSAAGALLQYAKDTQRTTLPHIRSITMEREQDSIIMDAATRRNLEITQNLAGGAENTLASVLDSTVTPMGSRMLKRWLHMPVRDTRVLLERQQTIGALQDFTAGLQPVLRQVGDLERILARLALRTARPRDLARMRHAFQQLPELRAQLETVDSAPVQALREKMGEFAELRDLLERAIIDTPPVLVRDGGVIASGYNEELDEWRALADGATDYLERLEVRERERTGLDTLKVGFNAVHGYYIQISRGQSHLAPINYMRRQTLKNAERYIIPELKEYEDKVLTSKGKALALEKQLYEELFDLLLPHLEALQQSASALAELDVLVNLAERAYTLNYTSPTFIDKPGIRITEGRHPVVEQVLNEPFIANPLNLSPQRRMLIITGPNMGGKSTYMRQTALIALMAYIGSYVPAQKVEIGPIDRIFTRVGAADDLASGRSTFMVEMTETANILHNATEYSLVLMDEIGRGTSTYDGLSLAWAVAENLANKIKALTLFATHYFELTQLPEKMEGVANVHLDALEHGDTIAFMHSVQDGAASKSYGLAVAALAGVPKEVIKRARQKLRELESISPNAAATQVDGTQMSLLSVPEETSPAVEALENLDPDSLTPRQALEWIYRLKSLV | – | – | 4 and 2 |
| MutS^CF/D835R (cysteine-free full-length E.coli MutS with D835R, N-terminal His6-tagged) (natural protein, UniProt P23909 1-853, looked up) MSAIENFDAHTPMMQQYLRLKAQHPEILLFYRMGDFYELFYDDAKRASQLLDISLTKRGASAGEPIPMAGIPYHAVENYLAKLVNQGESVAIAEQIGDPATSKGPVERKVVRIVTPGTISDEALLQERQDNLLAAIWQDSKGFGYATLDISSGRFRLSEPADRETMAAELQRTNPAELLYAEDFAEMSLIEGRRGLRRRPLWEFEIDTARQQLNLQFGTRDLVGFGVENAPRGLSAAGALLQYAKDTQRTTLPHIRSITMEREQDSIIMDAATRRNLEITQNLAGGAENTLASVLDSTVTPMGSRMLKRWLHMPVRDTRVLLERQQTIGALQDFTAGLQPVLRQVGDLERILARLALRTARPRDLARMRHAFQQLPELRAQLETVDSAPVQALREKMGEFAELRDLLERAIIDTPPVLVRDGGVIASGYNEELDEWRALADGATDYLERLEVRERERTGLDTLKVGFNAVHGYYIQISRGQSHLAPINYMRRQTLKNAERYIIPELKEYEDKVLTSKGKALALEKQLYEELFDLLLPHLEALQQSASALAELDVLVNLAERAYTLNYTSPTFIDKPGIRITEGRHPVVEQVLNEPFIANPLNLSPQRRMLIITGPNMGGKSTYMRQTALIALMAYIGSYVPAQKVEIGPIDRIFTRVGAADDLASGRSTFMVEMTETANILHNATEYSLVLMDEIGRGTSTYDGLSLAWAVAENLANKIKALTLFATHYFELTQLPEKMEGVANVHLDALEHGDTIAFMHSVQDGAASKSYGLAVAALAGVPKEVIKRARQKLRELESISPNAAATQVDGTQMSLLSVPEETSPAVEALENLDPRSLTPRQALEWIYRLKSLV | – | – | 2 |
| MutS^wt (E.coli MutS, full-length, N-terminal His6-tagged) (natural protein, UniProt P23909 1-853, looked up) MSAIENFDAHTPMMQQYLRLKAQHPEILLFYRMGDFYELFYDDAKRASQLLDISLTKRGASAGEPIPMAGIPYHAVENYLAKLVNQGESVAICEQIGDPATSKGPVERKVVRIVTPGTISDEALLQERQDNLLAAIWQDSKGFGYATLDISSGRFRLSEPADRETMAAELQRTNPAELLYAEDFAEMSLIEGRRGLRRRPLWEFEIDTARQQLNLQFGTRDLVGFGVENAPRGLCAAGCLLQYAKDTQRTTLPHIRSITMEREQDSIIMDAATRRNLEITQNLAGGAENTLASVLDCTVTPMGSRMLKRWLHMPVRDTRVLLERQQTIGALQDFTAGLQPVLRQVGDLERILARLALRTARPRDLARMRHAFQQLPELRAQLETVDSAPVQALREKMGEFAELRDLLERAIIDTPPVLVRDGGVIASGYNEELDEWRALADGATDYLERLEVRERERTGLDTLKVGFNAVHGYYIQISRGQSHLAPINYMRRQTLKNAERYIIPELKEYEDKVLTSKGKALALEKQLYEELFDLLLPHLEALQQSASALAELDVLVNLAERAYTLNYTCPTFIDKPGIRITEGRHPVVEQVLNEPFIANPLNLSPQRRMLIITGPNMGGKSTYMRQTALIALMAYIGSYVPAQKVEIGPIDRIFTRVGAADDLASGRSTFMVEMTETANILHNATEYSLVLMDEIGRGTSTYDGLSLAWACAENLANKIKALTLFATHYFELTQLPEKMEGVANVHLDALEHGDTIAFMHSVQDGAASKSYGLAVAALAGVPKEVIKRARQKLRELESISPNAAATQVDGTQMSLLSVPEETSPAVEALENLDPDSLTPRQALEWIYRLKSLV | – | – | 2 and 4 |
